Paper PMC10015821 (Matrix biology : journal of the International Society for …, 2022)

Key:
Assay in all cases: SPR
[1] = biological target: mouse HMCN1 fragment G2F-EGF1–5 (Strep-tagged) (mouse) (UniProt D3YXG0)
[2] = biological target: mouse HMCN1 fragment G2F-EGF1–3 (mouse) (UniProt D3YXG0)
[3] = biological target: mouse HMCN1 fragment G2F-EGF1–4 (mouse) (UniProt D3YXG0)
[4] = biological target: mouse HMCN1 fragment TSR6-G2F-EGF1–2 (mouse) (UniProt D3YXG0)
[5] = biological target: mouse HMCN1 fragment G2F (mouse) (UniProt D3YXG0)
[6] = biological target: mouse HMCN1 fragment G2F-EGF1–2 (mouse) (UniProt D3YXG0)
[7] = biological target: mouse HMCN1 fragment EGF1–5 (mouse) (UniProt D3YXG0)
[8] = biological target: laminin-γ1 short arm (mouse) (UniProt P02468)
laminin-γ1 short arm (mouse), sequence (P02468 34-1607): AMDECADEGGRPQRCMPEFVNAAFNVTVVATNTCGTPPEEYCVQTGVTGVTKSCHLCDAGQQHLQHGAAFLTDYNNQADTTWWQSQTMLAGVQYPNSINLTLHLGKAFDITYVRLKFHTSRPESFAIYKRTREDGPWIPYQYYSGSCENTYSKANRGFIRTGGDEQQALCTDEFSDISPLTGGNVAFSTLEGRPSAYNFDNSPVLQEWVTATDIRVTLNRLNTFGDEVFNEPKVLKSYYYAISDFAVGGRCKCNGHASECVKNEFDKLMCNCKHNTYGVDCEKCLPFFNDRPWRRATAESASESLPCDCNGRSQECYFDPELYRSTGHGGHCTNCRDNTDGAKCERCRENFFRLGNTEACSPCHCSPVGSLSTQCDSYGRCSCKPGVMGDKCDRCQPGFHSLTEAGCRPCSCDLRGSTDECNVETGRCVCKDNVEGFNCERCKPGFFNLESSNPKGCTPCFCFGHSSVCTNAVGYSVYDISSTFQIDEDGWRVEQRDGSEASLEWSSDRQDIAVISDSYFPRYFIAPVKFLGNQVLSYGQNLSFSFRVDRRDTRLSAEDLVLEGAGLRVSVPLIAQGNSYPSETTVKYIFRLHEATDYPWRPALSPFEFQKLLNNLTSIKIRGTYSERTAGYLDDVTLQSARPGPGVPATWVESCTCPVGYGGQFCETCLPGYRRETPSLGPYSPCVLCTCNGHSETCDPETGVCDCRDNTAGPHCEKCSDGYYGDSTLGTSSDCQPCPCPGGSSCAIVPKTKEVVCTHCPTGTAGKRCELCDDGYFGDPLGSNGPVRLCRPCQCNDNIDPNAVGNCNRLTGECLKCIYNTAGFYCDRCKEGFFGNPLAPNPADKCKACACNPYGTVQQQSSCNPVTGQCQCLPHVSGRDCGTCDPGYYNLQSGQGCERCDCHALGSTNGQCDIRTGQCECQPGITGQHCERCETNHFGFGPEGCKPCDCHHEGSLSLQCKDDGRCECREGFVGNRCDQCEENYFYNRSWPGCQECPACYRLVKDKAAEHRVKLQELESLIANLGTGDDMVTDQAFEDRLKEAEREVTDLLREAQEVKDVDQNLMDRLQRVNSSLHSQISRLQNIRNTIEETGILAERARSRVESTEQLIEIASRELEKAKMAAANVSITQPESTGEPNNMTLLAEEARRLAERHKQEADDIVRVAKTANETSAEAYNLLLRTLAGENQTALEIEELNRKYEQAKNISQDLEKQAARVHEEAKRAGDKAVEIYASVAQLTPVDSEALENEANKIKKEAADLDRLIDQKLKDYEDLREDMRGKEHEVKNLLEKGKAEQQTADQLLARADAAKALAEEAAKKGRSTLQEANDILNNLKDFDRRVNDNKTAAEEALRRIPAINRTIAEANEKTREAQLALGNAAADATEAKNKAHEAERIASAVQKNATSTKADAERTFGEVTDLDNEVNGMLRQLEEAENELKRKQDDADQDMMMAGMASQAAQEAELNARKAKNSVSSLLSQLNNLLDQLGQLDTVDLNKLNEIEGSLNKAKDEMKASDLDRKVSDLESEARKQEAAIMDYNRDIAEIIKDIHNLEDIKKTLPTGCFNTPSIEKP

[9] = biological target: laminin-511 (UniProt O15230 36-3695; P07942 22-1786; P11047 34-1609)
[10] = biological target: mouse HMCN1 fragment G2F-EGF1–5 (Strep-tagged) (mouse, UniProt D3YXG0 22-5634)

## mouse NID1 TY-G3 (TG3) domain (from UniProt P10493 29-1245) (domain or fragment)
[1]
  Kd: 585 nM

## mouse NID2 TY-G3 (TG3) domain, Strep-tagged (from UniProt O88322 31-1403) (domain or fragment)
[1]
  Kd: 30 nM
[2]
  Kd: 170 nM
[3]
  Kd: 180 nM
[4]
  Kd: 176 nM
[5]
  Kd: > 3000 nM
[6]
  Kd: 185 nM

B1: mouse nidogen-2 (NID2), full-length, Strep-tagged (natural protein, UniProt O88322 31-1403, looked up)
chain: LRPDELFPYGESWGDQLLPEGDDESSAAVKLAIPLRFYDAQFSSLYVGTNGIISTQDFPRETQYVDDDFPTDFPAIAPFLADIDTSHSRGRILYREDTSGAVLSLAARYVRTGFPLSGSSFTPTHAFLATWEHVGAYEEVSRGAAPSGELNTFQAVLASDESDTYALFLYPANGLQFFGTRPKESYNVQLQLPARVGFCRGEADDLKREALYFSLTNTEQSVKNLYQLSNLGIPGVWAFHIGSRFALDNVRPATVGGDPSTARSSALEHPFSHAAALESYTEDSFHYYDENEEDVEYPPVEPGEAPEGHSRIDVSFNSKADPGLVDVGTSSPGSDRASPWPYPAPGNWPSYRETESASLDPQTKQGRPVGEGEVLDFRDPAELLDQMGTRAPAPPEADAALLTPVNEDLGGRNTQSYPEAGPVPSEPDVPVPPLEGEVLPHYPESGHVPPLRGGKYVIGLEDHVGSNDQVFTYNGANLETCEHSHGRCSQHAFCTDYTTGFCCHCQSRFYGNGKHCLPEGAPHRVNGKVSGRLRVGHIPVHFTDVDLHAYIVGNDGRAYTAISHVPQPAAQALLPVLPIGGLFGWLFALEKPGSENGFSLTGATFVHDVEVTFHPGEERVRITQTAEGLDPENYLSIKTNIEGQVPFIPANFTAHITPYKEFYHYRDSVVTSSSSRSFSLTSGSINQTWSYHIDQNITYQACRHAPRHLAIPATQQLTVDRAFALYSEDEGVLRFAVTNQIGPVEVDSAPVGVNPCYDGSHTCDTTARCHPGTGVDYTCECTPGFQGDGRSCVDVNECATGFHRCGPNSVCVNLVGSYRCECRSGYEFADDQHTCILIAPPPNPCLDGSHTCAPEGQARCIHHGGSSFSCACLPGFIGTGHQCSDVDECAENRCHEAAICYNTPGSFSCRCQPGYRGDGFHCTSDTVPEDSISGLKPCEYQQRYAQTQHAYPGSRIHIPQCDDQGNFVPLQCHGSTGFCWCVDRNGHEVPGTQTPPGSTPPHCGPPPEPTQRPRTVCERWRESLLEHYGGTPRDDQYVPQCDDLGHFIPLQCHGKSDFCWCVDKDGRELQGTRSQPGTRPACIPTVAPPVVRPTPRPDVTPPSVGTFLLYAQGQQIGHLPLNGSRLQKDAARTLLSLHGSIVVGIDYDCRERMVYWTDVAGRTISRASLEAGAEPETIITSGLISPEGLAIDHFRRTMYWTDSGLDKIERAELDGSERKVLFHTDLVNPRAITVDPIRGNLYWTDWNREAPKIETSSLDGENRRILINKDIGLPNGLTFDPFSKLLCWADAGTKKLECTLPDGTGRRVIQNHLNYPFSIVSYADHFYHTDWRRDGVISVNKDSGQFTDEFLPEQRSHLYGITAVYPYCPTGRK
[7]
  Kd: 500 nM
[1]
  Kd: 20 nM
  koff: 0.00837 s⁻¹
[2]
  Kd: 210 nM
[3]
  Kd: 193 nM
[4]
  Kd: 160 nM
[5]
  Kd: > 3000 nM
[6]
  Kd: 200 nM
[8]
  Kd: 6 nM
  koff: 0.00073 s⁻¹
  kon: 120000 M⁻¹ s⁻¹
[9]
  Kd: 5 nM
  koff: 0.00081 s⁻¹

B2: mouse nidogen-1 (NID1), full-length (natural protein, UniProt P10493 29-1245, looked up)
chain: LNRQELFPFGPGQGDLELEAGDDVVSPSLELIGELSFYDRTDITSVYVTTNGIIAMSEPPATEYHPGTFPPSFGSVAPFLADLDTTDGLGNVYYREDLSPFIIQMAAEYVQRGFPEVSFQPTSVVVVTWESVAPYGGPSSSPAEEGKRNTFQAVLASSNSSSYAIFLYPEDGLQFFTTFSKKDESQVPAVVGFSKGLVGFLWKSNGAYNIFANDRESIENLAKSSNAGHQGVWVFEIGSPATAKGVVSADVNLDLDDDGADYEDEDYDLVTSHLGLEDVATPSPSHSPRRGYPDPHNVPRILSPGYEATERPRGVPTERTRSFQLPAERFPQHHPQVIDVDEVEETGVVFSYNTGSQQTCANNRHQCSVHAECRDYATGFCCRCVANYTGNGRQCVAEGSPQRVNGKVKGRIFVGSSQVPVVFENTDLHSYVVMNHGRSYTAISTIPETVGYSLLPLAPIGGIIGWMFAVEQDGFKNGFSITGGEFTRQAEVTFLGHPGKLVLKQQFSGIDEHGHLTISTELEGRVPQIPYGASVHIEPYTELYHYSSSVITSSSTREYTVMEPDQDGAAPSHTHIYQWRQTITFQECAHDDARPALPSTQQLSVDSVFVLYNKEERILRYALSNSIGPVRDGSPDALQNPCYIGTHGCDSNAACRPGPGTQFTCECSIGFRGDGQTCYDIDECSEQPSRCGNHAVCNNLPGTFRCECVEGYHFSDRGTCVAAEDQRPINYCETGLHNCDIPQRAQCIYMGGSSYTCSCLPGFSGDGRACRDVDECQHSRCHPDAFCYNTPGSFTCQCKPGYQGDGFRCMPGEVSKTRCQLEREHILGAAGGADAQRPTLQGMFVPQCDEYGHYVPTQCHHSTGYCWCVDRDGRELEGSRTPPGMRPPCLSTVAPPIHQGPVVPTAVIPLPPGTHLLFAQTGKIERLPLERNTMKKTEAKAFLHIPAKVIIGLAFDCVDKVVYWTDISEPSIGRASLHGGEPTTIIRQDLGSPEGIALDHLGRTIFWTDSQLDRIEVAKMDGTQRRVLFDTGLVNPRGIVTDPVRGNLYWTDWNRDNPKIETSHMDGTNRRILAQDNLGLPNGLTFDAFSSQLCWVDAGTHRAECLNPAQPGRRKVLEGLQYPFAVTSYGKNLYYTDWKTNSVIAMDLAISKEMDTFHPHKQTRLYGITIALSQCPQGHNYCSVNNGGCTHLCLPTPGSRTCRCPDNTLGVDCIERK
[1]
  Kd: 560 nM
[9]
  Kd: 2.4 nM
  koff: 0.0021 s⁻¹

B3: hybrid fragment: single TY domain of NID1 with the G3 domain of Nid2 (N1T-N2G3) (domain or fragment)
chain: KTRCQLEREHILGAAGGADAQRPTLQGMFVPQCDEYGHYVPTQCHHSTGYCWCVDRDGRELEGSRTPPGMRPPCIPTVAPPVVRPTPRPDVTPPSVGTFLLYAQGQQIGHLPLNGSRLQKDAARTLLSLHGSIVVGIDYDCRERMVYWTDVAGRTISRASLEAGAEPETIITSGLISPEGLAIDHFRRTMYWTDSGLDKIERAELDGSERKVLFHTDLVNPRAITVDPIRGNLYWTDWNREAPKIETSSLDGENRRILINKDIGLPNGLTFDPFSKLLCWADAGTKKLECTLPDGTGRRVIQNHLNYPFSIVSYADHFYHTDWRRDGVISVNKDSGQFTDEFLPEQRSHLYGITAVYPYCPTGRK
[10]
  Kd: 110 nM

B4: hybrid fragment: two TY domains of NID2 with the G3 domain of NID1 (N2T-N1G3) (domain or fragment)
chain: LKPCEYQQRYAQTQHAYPGSRIHIPQCDDQGNFVPLQCHGSTGFCWCVDRNGHEVPGTQTPPGSTPPHCGPPPEPTQRPRTVCERWRESLLEHYGGTPRDDQYVPQCDDLGHFIPLQCHGKSDFCWCVDKDGRELQGTRSQPGTRPACLSTVAPPIHQGPVVPTAVIPLPPGTHLLFAQTGKIERLPLERNTMKKTEAKAFLHIPAKVIIGLAFDCVDKVVYWTDISEPSIGRASLHGGEPTTIIRQDLGSPEGIALDHLGRTIFWTDSQLDRIEVAKMDGTQRRVLFDTGLVNPRGIVTDPVRGNLYWTDWNRDNPKIETSHMDGTNRRILAQDNLGLPNGLTFDAFSSQLCWVDAGTHRAECLNPAQPGRRKVLEGLQYPFAVTSYGKNLYYTDWKTNSVIAMDLAISKEMDTFHPHKQTRLYGITIALSQCPQGHNYCSVNNGGCTHLCLPTPGSRTCRCPDNTLGVDCIERK
[10]
  Kd: 170 nM
